Data taken from the DeepSol protein solubility set.

Experiment: soluble on expression in E. coli; label from the status in PepcDB or PDB records

Sequence | soluble on expression in E. coli
MGHHHHHHSHMWKVVNLPTDLFNSVMNVGRFTEEIEWLKFLALACSALGVTITKTLKIVCEVLSCDHNGGLPRIPFSTFQFLYTYIAEVDGEICASHVSRMLNYIEQEVIGPDGLITVNDFTQNPRVWLE | not soluble
MGHHHHHHSHMYLRHDKPPYTYLAMIALVIQAAPSRRLKLAQIIRQVQAVFPFFREDYEGWKDSIRHNLSSNRCFRKVPKDPAKPQAKGNFWAVDVSLIPAEALRLQNTALCRRWQNGG | soluble
MGHHHHHHSHRSSDCPYIVQFYGALFREGDCWICMELMSTSFDKFYKYVYSVLDDVIPEEILGKITLATVKALNHLKENLKIIHRDIKPSNILLDRSGNIKLCDFGISGQLVDSIAKTRDAGCRPYMAPERIDPSASRQGYDVRSDVWSLGITLYELATGRFPYPKWNSVFDQLTQVVKGDPPQLS | not soluble
MGHHHHHHSHVFKIEDKIGEGTFSSVYLATAQLQVGPEEKIALKHLIPTSHPIRIAAELQCLTVAGGQDNVMGVKYCFRKNDHVVIAMPYLEHESFLDILNSLSFQEVREYMLNLFKALKRIHQFGIVHRDVKPSNFLYNRRLKKYALVDFGLAQGTHDTKIELLKFVQSEAQQERCSQNKSHIITGNKIPLSGPVPKELDQQSTTKASVKRPYTNAQIQIKQGKDGKEGSVGLSVQRSVFGERNFNIHSSISHESPAVKLMKQSKTVDVLSRKLATKKKAISTKVMNSAVMRKTASSCPASLTCDCYATDKVCSICLSRRQQVAPRAGTPGFRAPEVLTKCPNQTTAIDMWSAGVIFLSLLSGRYPFYKASDDLTALAQIMTIRGSRETIQAAKTFGKSILCSKEVPAQDLRKLCERLRGMDSSTPKLTSDIQGHASHQPAISEKTDHKASC | soluble
MGHHHHHHSHVGFDTGFMQFFRVREKSMTMAELLIGSRKTYGLNLIGGVRRDILKEQRLQTLKLVREMRADVSELVEMLLATPNMEQRTQGIGILDRQIARDLRFDHPYADYGNIPKTLFTFTGGDVFSRVMVRVKETFDSLAMLEFALDNMPDTPLLTEGFSYKPHAFALGFVEAPRGEDVHWSMLGDNQKLFRWRCRAATYANWPVLRYMLRGNTVSDAPLIIGSLDPCYSCTDR | not soluble
MGITSAGMQSRDAECGERIFTRTVRQVKQQTTVHYFVSPPRPPVKTNPQAKTLISTRLEVATRKKRRVLFILEHHHHHH | not soluble
MGKFFFFGFVGLLLSWGALYYRYSDEKNTSARKYRFDPPPALVGNLFINAGLEKAEHILDGKIVGPESMVVDDEAIYVSVNDAKVLKIVDGRVVSKASYSEKSKFFPDCGHFDTEPECGRPLGIRRLVAGKPKFVVCDAYLGVYIVDFTDEQNPISTQILDSKVPIDGLKPRFLNDLDVISEDELIISDSSTRHDRRHFMAAILEHQADGRIFHLKISTKSVKVLADKLYFPNGIQLTEDKKSVIFAECSMARIKKLTIASKKVEMFAANLPGLPDNIRSSGRGTYWVGLTATRSATHPSLLDRLGSLPGIRQFLVDIVPGPYWKPLLGLFKNPHSIIIELDSVGKIVRSLHDVTGKHVGDASQVTEHNGHLYIGSFADHYIAKVKL | not soluble
MGKFMMEKFVQTVSSVNYNKGVFSLYFVGQDQKNMAHGVMAESDNDLELKQVVHMPASGFMYMVSMIKNMLEDPRMEAEFNKLVAAGFLPAGDATANSAEDAAAEEKTAAKKRPAQVKK | not soluble
MGKKNEKIVEEAEKVEAETMEVDEQPQETPQVDDEEDLNVPSKKKMEILDPKSFEQDPSNLTLIMYEEDHTIGNSIKHILSRMDEVEFCGYNVPHPLEDKILFRVQTKDGINALEVLAKAFESVEQIFSTIRGKFEESYEQSQS | soluble
MGKRFSSFQAAQIRIARPTGQLDEIIRFYEEGLCLKRIGEFSQHNGYDGVMFGLPHADYHLEFTQYEGGSTAPVPHPDSLLVFYVPNAVELAAITSKLKHMGYQEVESENPYWSNGGVTIEDPDGWRIVFMNSKGISGK | soluble
MGKSSNIVFDRIKEERQMLSFFKIFQRADLSSDCMRALPYSFISKVSEKDFSYKMVIRAQWGKTWDVEVSKNPTYYYIETRGWDLFVSDNALGQNEFITFTHRGNMVFHVNIYEQNGLEMRKPRKFQTMGPSSGIKKEEGENSLIDVKKEEESDESPGRAEFLVRKKKTEDSKSSKKKMTRNKVKKKSKSKSKQVLDGVPEFKITIRKSYLKFLAIPKHFVDDHIPNKSKIFTIRHPNGGSWKVLCLVREIRTIFSGGYSKLAREFPLMVGDKCTFKLIKPFEFVLLTSKKNREKMDQCMID | soluble
MGKVLIIGAGGVGTVVAKKVAMNTDVFTEIMLASRTRSKCDKIASEIKNVRIQTAQVDADNVEELVALFESFKPELVINVALPYQDLTIMDACLRCGVNYLDTANYEPLDEAKYEYSWQWAYQDRFRK | not soluble
MGKYKFIEERVETMSSSELKIFLNILKSRSKELMSTLESVRGIKDLEAVCKSTQKLNNRVSEFDGGSFLILVVGPVKSGKSTLVNLIAHAHVSPTHFLECTVRPSIISKGQEESITRIFSVADKARKVEQFDSVIDSLRGFEKLENISEISIEKKELNDANLEECVSLALEESVINTDHTLVTSITTSGGELLKDNIFLVDMPGLDGGYVNLDNPIYETISQRADFVIFVQSSNSAISKVSNRFLKLLQENNPKVPVCLLHNVFEAAYWHSEEEKQAVIKAQVEFAENEMGRRNFQLKENIYSLNLGKVADAASYEGMEDLQEEAAKFQRFEKDLYGKVISNSTDIRLRSVIGRTLNQLEKLDNLVGESIGQQEAIDIEYQAAATSFDELLRQASELSYDGSDFRKMVQVYMDDDLKEFTEIVREYYDSGCNSAFAGGAKGKDATRSLVTKFMTDSSAAIKSKFLDSHEHSLARQYLRKLSNLKDDVAFIEKMNTFLKQKGCAPFDSVPQVTDFPVVDFDLQGAFDVKNINNPTVPHIGIPNPFGTYSTMEIQSFLRKAMECITGIDHTHTGKTIKGYLQLTVGKSIYKAANDLYDQYVPVRKQSIIDFLEQQKTMYLNALVSDKEEFDRKDALLRSINAQVQSFKDSIR | not soluble
MGLCMMRTLQSAPSSPLAMPEIQFCLLPDACRPLLGKFYREHQSSMRAASKGQAWVAKQEEIIGALCLTPVADGHWLTGLFVAPPLRGNAVAQRLIDAALLPLSGPVWLFCHPDLQGFYRLAGFETAQRLPQALGERLMRYSRSKPLVALHREA | not soluble
MGLFFAQNMMYNHTITVYDRNYELVKVIPDEVDLSKYGHSRFKGKYRGAPVEASFSHNGKYAWISNYQMYGPGFNNPGSDKCHPSQKTDKSFLYRINTETLKIDRVIPVGSVPKFVATSTDENLILVSNWCSWDLSVVDINQNQEIKRIKLGPYPRGIVVDPASETAYVAVMGSYNIAKVNLRDFSVQWLRNIGSSPRHLNIDPAGKYLYASLNGEGKIAKISLPQGNLVKKIATGNAPRSMVLSANGQTLYVVNYGEDTVSKVRTSDMKVLQKVKVEPDPIGITYDPQTREVWVACYSGNIMIFQDLEHHHHHH | soluble
MGLSDEQLGKIVRFHLKEDKQAHERIKQKMMESMKAFRKAVGEPATDDETLRKLGQAHIDSFNEMVKYHIDERKAVRSILTPEQIGKLEHHHHHH | not soluble
MGLVDYAGSESESDEEMETQQKNSLAPQNQQLVDDEAFFDNTEKSSSPNMNKEDVLEELVKPKEWEVKLAEKARRKLEKKALKKAQKEERKKEKKLAKKAMKVEKIPKIGGGIQKAKGKVIISAFGALAGITGENSSDDSDNEGAAVATVKPKLGNSFLSNLPAPKGRDNRSDGANVFDKSMVPHSVSKKATPAAAPVFKPAPAPKLPDDSDDDDDGPTDFFGFSSAPTRKESEIPSEIPYMTMNSSMDVVGPSRPDEGMDPRQMYEMPEEEEDVQEGPSASNAWLHRKINDEQAHKLLMRFSHDIGQEERRSINEMANSIVDVNVDDALGPDVKTNIIKNLGHRAFVEATSAPLPQVQTQGQMSRRKHQITYLASLAVSREEQLKDQWADQKQSKRMARQKYGF | not soluble
MGMTPAQEVISYLINAAIGVSSTSSRPFRDAPPGCPDTLLVQCVKWFFRNGDFSNFYEDIKYLVKGKSLAGFVNSHLMVCPELIRIIVENADNKSRRVKFLIKKDEFAICVGRGRLITFPFTKDMEEPACILAEYTELLFSFPHYDIEYSFEGSYGLSRNMDLTETHIMLLSKLTPSMFAEKARPRRVRERNGRLAVRMSRISWNRSGLYYNAIIQFFESLRGTVITQGEQPLCEKSVTYQEMLKHTLAHPGVHQLDSRPNFQWKISMRKTRKND | not soluble
MGNCLSTSDPSHEDVSKKLPKALPVDAAFKFPSPLPTFTRGDGFAKGTIDLGGGLEVSQVSTFNKVWSTYEGGPDNLGATFFEPSSIPSGFSILGYYAQPNNRNLFGWVLTARDLSSNTLKPPVDYTLVGNTESLKIKQDGTGYFWQPVPPDGYQAVGLIVTNYSQKPPLDKLRCIRSDLTEQCEADTWIWGTNGVNISNLKPTTRGTQATGVYVGTFTWQTQNSSPPSLSCLKNTKLDFSTMPNGSQIEELFQTFSPCIYFHPDEEYLPSSVTWYFNNGALLYKKGEESKPIPIESNGSNLPQGGSNDGSYWLDLPIDKNGKERVKKGDLQSTKVYLHIKPMLGATFTDISIWIFYPFNGPAKAKVKFVNLPLGRIGEHIGDWEHTTLRISNFTGELWRVFLSQHSGGIWIDACDLEFQDGGNNKFVAYASLHGHAMYPKPGLVLQGDDGVGIRNDTGKGKKVLDTGLGYEVIAAEYDGGGVVEPPWVKYFRKWGPKIDYNVDDEVKSVERILPGLLKKAFVKFVKKIPDEVYGEDGPTGPKLKSNWAGDES | not soluble
MGNMFGSSLASLFFLWATIQQIFPNHLKIAIKEFFLSTIQQISFAKRFSDKFINFFSPYVQINFSEYEDYRVNHAFDPIETYLGAKATDKAKHLRASQVRESKGLVLKRDETKVRDEYEGIRVWWEMETDSAGYKTLKLTFHRRSRDIVTNSYIKYVVEEGKSIDAKNKKMKLFTNNPSSHWGSSKTSFWRYIDFEHPATFETLAMDPKKKEQILNDLAAFNNGKDYYKKIGKAWKRGYLLYGPPGTGKSTMIAAMANLLNYSIYDLELTAIQNNSELRKILTATSNKSIIVIEDIDCSLDLTGKRKKKESNLMIWRKDGDQDNEENKSFVTLSGLLNFIDGIWSACGQERIIVFTTNHLAKLDPALIRRGRMDMHIELSYCTFEAFKTLAKNYLDLDSHPLFSKIESLMKETNIAPADVAENLMKKNRETDADGSLNDLIESLERKKKVQIAQVDEHKEYSNKIVEAFRKLF | soluble
MGNNQSGGPDARYGGPNDKAGLRRHRMMSETAKIAGQVLPNPDGGPPMIFDDGNEDKSGECPVVFRWSFTQNAQPRVVHIVGSWDNWQTRIPMVKSTNDFSTIIDLQPGQYEYKFQVDGSWVVDDNQGKAQDVHGNENNMINIQDSDFAVFEALDEDFQSSTAGEVLRGESESTKNHDTPNDRELEKLRSFTQEIPSMDMLRKAAGPPVIPPQLMQVLLNKETPESCDPNVLPEPNHVMLNHMYALSIKDSVMVLSSTQRYRKKFVTTLLYKPV | not soluble
MGNQLDRITHLNYSELPTGDPSGIEKDELRVGVAYFFSDEEEELDDRSQSDSFKDNNSPSKDGPVARNEIEYTAFCCQECIYSKLRENEDLNVYSVKTLLTMCKPGDLLELVANAQPPHWAIFEGEDQVIHLYKGEIRKDSLFEISCGRQARIVNNRYRYRPLPADLVMQNASGHVGLSSGEICWTNSESFAAWCRFGKREFKAGGEVHSVEQRYFLKVHLSESTAHTLMFRSLEEMIRERRRVDASGILKELSLVTGKE | not soluble
